Experimental data from IntAct's records for PubMed 18688256.

Molecular target: T1, il33_human IL33 (UniProt O95760)
T1 sequence: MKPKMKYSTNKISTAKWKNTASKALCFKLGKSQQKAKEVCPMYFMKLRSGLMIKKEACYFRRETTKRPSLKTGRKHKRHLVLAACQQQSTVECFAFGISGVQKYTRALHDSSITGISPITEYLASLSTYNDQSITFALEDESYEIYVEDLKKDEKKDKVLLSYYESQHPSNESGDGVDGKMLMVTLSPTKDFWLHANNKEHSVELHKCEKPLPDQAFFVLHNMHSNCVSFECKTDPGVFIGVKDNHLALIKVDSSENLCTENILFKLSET

Row | Substance | effect of a mutation on the interaction
1 | Histone H2A type 1 (Homo sapiens) (from UniProt P0C0S8) E93L | decreasing interaction
2 | Histone H2A type 1 (Homo sapiens) (from UniProt P0C0S8) E92R | decreasing interaction
